Laboratory results taken from patent US20260232769A1 (WUXI BIOLOGICS IRELAND, published 2026).

T1: IL-2Rβ/γc complex (intermediate affinity receptor) on primary human CD8+ T cells (human, UniProt P14784 27-551; P31785 23-369)
T1 sequence (looked up) 1: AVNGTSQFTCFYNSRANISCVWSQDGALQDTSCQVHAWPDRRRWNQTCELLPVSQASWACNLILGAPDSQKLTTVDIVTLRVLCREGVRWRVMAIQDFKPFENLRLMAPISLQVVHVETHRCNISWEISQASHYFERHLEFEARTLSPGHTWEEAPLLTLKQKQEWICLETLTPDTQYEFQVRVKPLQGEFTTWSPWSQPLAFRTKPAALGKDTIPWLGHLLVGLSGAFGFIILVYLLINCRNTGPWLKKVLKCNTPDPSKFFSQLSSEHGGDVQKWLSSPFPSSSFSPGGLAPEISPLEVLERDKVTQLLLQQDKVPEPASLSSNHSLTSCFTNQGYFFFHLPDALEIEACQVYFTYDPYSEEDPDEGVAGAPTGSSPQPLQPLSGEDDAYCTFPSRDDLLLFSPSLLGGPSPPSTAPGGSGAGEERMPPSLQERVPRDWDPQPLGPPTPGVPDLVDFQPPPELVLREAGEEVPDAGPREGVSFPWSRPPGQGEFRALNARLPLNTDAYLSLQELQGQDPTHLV
T1 sequence (looked up) 2: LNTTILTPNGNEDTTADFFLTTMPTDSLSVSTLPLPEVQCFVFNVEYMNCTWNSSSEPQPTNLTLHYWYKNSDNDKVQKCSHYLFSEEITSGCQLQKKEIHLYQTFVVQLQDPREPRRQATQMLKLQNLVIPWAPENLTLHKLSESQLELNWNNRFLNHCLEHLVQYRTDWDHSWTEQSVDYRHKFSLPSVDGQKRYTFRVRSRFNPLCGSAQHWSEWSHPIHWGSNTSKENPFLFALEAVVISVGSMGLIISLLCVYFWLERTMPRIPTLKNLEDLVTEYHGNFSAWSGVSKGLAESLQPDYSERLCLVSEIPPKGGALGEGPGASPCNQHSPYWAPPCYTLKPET


Biological target: T1, IL-2Rβ/γc complex (intermediate …)
Assay: cell-based or functional assay

Row | Binder | Potency reduction, pSTAT5, human activated CD8+ T
1 | W3XX115-T2U10.Z73-56.uIgG4V322 (Fc fusion) chain 1: APTSSSTKKTQLQLEHLLLDLQMILNGINNYDNPKLTRMLTIKFYMPKKATELKHLQCLEEELKPLEEVLNLAQSKNFHLRPRKLISNINVIVLELKGSETTFMCEYADETATIVEFLNRWITFCQSILESKYGPPCPPCPAPEAAGGPSVFLFPPKPKDTLMISRTPEVTCVVVDVSQEDPEVQFNWYVDGVEVHNAKTKPREEQFNSTYRVVSVLTVLHQDWLNGKEYKCKVSNKGLPSSIEKTISKAKGQPREPQVYTLPPCQEEMTKNQVSLWCLVKGFYPSDIAVEWESNGQPENNYKTTPPVLDSDGSFFLYSRLTVDKSRWQEGNVFSCSVMHEALHNHYTQKSLSLSLGK chain 2: QVQLVESGGGVVQPGGSLRLSCAASDSIDSLVNMGWYRQAPGKQRELVALIATYITHYADFVKGRFTISRDNSKNTLYLQMNSLRAEDTAVYYCYARNIIVDYWGQGTLVTVSSGGGGSGGGGSGGGGSQVQLVESGGGVVQPGGSLRLSCAASDSIDSLVNMGWYRQAPGKQRELVALIATYITHYADFVKGRFTISRDNSKNTLYLQMNSLRAEDTAVYYCYARNIIVDYWGQGTLVTVSSESKYGPPCPPCPAPEAAGGPSVFLFPPKPKDTLMISRTPEVTCVVVDVSQEDPEVQFNWYVDGVEVHNAKTKPREEQFNSTYRVVSVLTVLHQDWLNGKEYKCKVSNKGLPSSIEKTISKAKGQPREPQVCTLPPSQEEMTKNQVSLSCAVKGFYPSDIAVEWESNGQPENNYKTTPPVLDSDGSFFLVSRLTVDKSRWQEGNVFSCSVMHEALHNHYTQKSLSLSLG | 2.5 fold
2 | W3XX115-T2U10.Z73-58.uIgG4V322 (Fc fusion) chain 1: APTSSSTKKTQLQLEHLLLDLQMILNGINNYDNPKLTRMLTIKFYMPKKATELKHLQCLEEELKPLEEVLNLAQSKNFHLRPRDLISKINVIVLELKGSETTFMCEYADETATIVEFLNRWITFCQSILESKYGPPCPPCPAPEAAGGPSVFLFPPKPKDTLMISRTPEVTCVVVDVSQEDPEVQFNWYVDGVEVHNAKTKPREEQFNSTYRVVSVLTVLHQDWLNGKEYKCKVSNKGLPSSIEKTISKAKGQPREPQVYTLPPCQEEMTKNQVSLWCLVKGFYPSDIAVEWESNGQPENNYKTTPPVLDSDGSFFLYSRLTVDKSRWQEGNVFSCSVMHEALHNHYTQKSLSLSLGK chain 2: QVQLVESGGGVVQPGGSLRLSCAASDSIDSLVNMGWYRQAPGKQRELVALIATYITHYADFVKGRFTISRDNSKNTLYLQMNSLRAEDTAVYYCYARNIIVDYWGQGTLVTVSSGGGGSGGGGSGGGGSQVQLVESGGGVVQPGGSLRLSCAASDSIDSLVNMGWYRQAPGKQRELVALIATYITHYADFVKGRFTISRDNSKNTLYLQMNSLRAEDTAVYYCYARNIIVDYWGQGTLVTVSSESKYGPPCPPCPAPEAAGGPSVFLFPPKPKDTLMISRTPEVTCVVVDVSQEDPEVQFNWYVDGVEVHNAKTKPREEQFNSTYRVVSVLTVLHQDWLNGKEYKCKVSNKGLPSSIEKTISKAKGQPREPQVCTLPPSQEEMTKNQVSLSCAVKGFYPSDIAVEWESNGQPENNYKTTPPVLDSDGSFFLVSRLTVDKSRWQEGNVFSCSVMHEALHNHYTQKSLSLSLG | 26.1 fold
3 | W3XX115-T2U10.Z73-59.uIgG4V322 (Fc fusion) chain 1: APTSSSTKKTQLQLEHLLLDLQMILNGINNYDNPKLTRMLTIKFYMPKKATELKHLQCLEEELKPLEEVLNLAQSKNFHLRPRDLISNINEIVLELKGSETTFMCEYADETATIVEFLNRWITFCQSILESKYGPPCPPCPAPEAAGGPSVFLFPPKPKDTLMISRTPEVTCVVVDVSQEDPEVQFNWYVDGVEVHNAKTKPREEQFNSTYRVVSVLTVLHQDWLNGKEYKCKVSNKGLPSSIEKTISKAKGQPREPQVYTLPPCQEEMTKNQVSLWCLVKGFYPSDIAVEWESNGQPENNYKTTPPVLDSDGSFFLYSRLTVDKSRWQEGNVFSCSVMHEALHNHYTQKSLSLSLGK chain 2: QVQLVESGGGVVQPGGSLRLSCAASDSIDSLVNMGWYRQAPGKQRELVALIATYITHYADFVKGRFTISRDNSKNTLYLQMNSLRAEDTAVYYCYARNIIVDYWGQGTLVTVSSGGGGSGGGGSGGGGSQVQLVESGGGVVQPGGSLRLSCAASDSIDSLVNMGWYRQAPGKQRELVALIATYITHYADFVKGRFTISRDNSKNTLYLQMNSLRAEDTAVYYCYARNIIVDYWGQGTLVTVSSESKYGPPCPPCPAPEAAGGPSVFLFPPKPKDTLMISRTPEVTCVVVDVSQEDPEVQFNWYVDGVEVHNAKTKPREEQFNSTYRVVSVLTVLHQDWLNGKEYKCKVSNKGLPSSIEKTISKAKGQPREPQVCTLPPSQEEMTKNQVSLSCAVKGFYPSDIAVEWESNGQPENNYKTTPPVLDSDGSFFLVSRLTVDKSRWQEGNVFSCSVMHEALHNHYTQKSLSLSLG | 18.9 fold
4 | W3XX115-T2U10.Z73-60.uIgG4V322 (Fc fusion) chain 1: APTSSSTKKTQLQLEHLLLDLQMILNGINNYDNPKLTRMLTIKFYMPKKATELKHLQCLEEELKPLEEVLNLAQSKNFHLRPRDLISNINVRVLELKGSETTFMCEYADETATIVEFLNRWITFCQSILESKYGPPCPPCPAPEAAGGPSVFLFPPKPKDTLMISRTPEVTCVVVDVSQEDPEVQFNWYVDGVEVHNAKTKPREEQFNSTYRVVSVLTVLHQDWLNGKEYKCKVSNKGLPSSIEKTISKAKGQPREPQVYTLPPCQEEMTKNQVSLWCLVKGFYPSDIAVEWESNGQPENNYKTTPPVLDSDGSFFLYSRLTVDKSRWQEGNVFSCSVMHEALHNHYTQKSLSLSLGK chain 2: QVQLVESGGGVVQPGGSLRLSCAASDSIDSLVNMGWYRQAPGKQRELVALIATYITHYADFVKGRFTISRDNSKNTLYLQMNSLRAEDTAVYYCYARNIIVDYWGQGTLVTVSSGGGGSGGGGSGGGGSQVQLVESGGGVVQPGGSLRLSCAASDSIDSLVNMGWYRQAPGKQRELVALIATYITHYADFVKGRFTISRDNSKNTLYLQMNSLRAEDTAVYYCYARNIIVDYWGQGTLVTVSSESKYGPPCPPCPAPEAAGGPSVFLFPPKPKDTLMISRTPEVTCVVVDVSQEDPEVQFNWYVDGVEVHNAKTKPREEQFNSTYRVVSVLTVLHQDWLNGKEYKCKVSNKGLPSSIEKTISKAKGQPREPQVCTLPPSQEEMTKNQVSLSCAVKGFYPSDIAVEWESNGQPENNYKTTPPVLDSDGSFFLVSRLTVDKSRWQEGNVFSCSVMHEALHNHYTQKSLSLSLG | 10 fold
5 | W3XX115-T2U10.Z73-61.uIgG4V322 (Fc fusion) chain 1: APTSSSTKKTQLQLEHLLLDLQMILNGINNYDNPKLTRMLTIKFYMPKKATELKHLQCLEEELKPLEEVLNLAQSKNFHLRPRDLISNINVDVLELKGSETTFMCEYADETATIVEFLNRWITFCQSILESKYGPPCPPCPAPEAAGGPSVFLFPPKPKDTLMISRTPEVTCVVVDVSQEDPEVQFNWYVDGVEVHNAKTKPREEQFNSTYRVVSVLTVLHQDWLNGKEYKCKVSNKGLPSSIEKTISKAKGQPREPQVYTLPPCQEEMTKNQVSLWCLVKGFYPSDIAVEWESNGQPENNYKTTPPVLDSDGSFFLYSRLTVDKSRWQEGNVFSCSVMHEALHNHYTQKSLSLSLGK chain 2: QVQLVESGGGVVQPGGSLRLSCAASDSIDSLVNMGWYRQAPGKQRELVALIATYITHYADFVKGRFTISRDNSKNTLYLQMNSLRAEDTAVYYCYARNIIVDYWGQGTLVTVSSGGGGSGGGGSGGGGSQVQLVESGGGVVQPGGSLRLSCAASDSIDSLVNMGWYRQAPGKQRELVALIATYITHYADFVKGRFTISRDNSKNTLYLQMNSLRAEDTAVYYCYARNIIVDYWGQGTLVTVSSESKYGPPCPPCPAPEAAGGPSVFLFPPKPKDTLMISRTPEVTCVVVDVSQEDPEVQFNWYVDGVEVHNAKTKPREEQFNSTYRVVSVLTVLHQDWLNGKEYKCKVSNKGLPSSIEKTISKAKGQPREPQVCTLPPSQEEMTKNQVSLSCAVKGFYPSDIAVEWESNGQPENNYKTTPPVLDSDGSFFLVSRLTVDKSRWQEGNVFSCSVMHEALHNHYTQKSLSLSLG | 14.2 fold
6 | W3XX115-T2U10.Z73-62.uIgG4V322 (Fc fusion) chain 1: APTSSSTKKTQLQLEHLLLDLQMILNGINNYDNPKLTRMLTIKFYMPKKATELKHLQCLEEELKPLEEVLNLAQSKNFHLRPRDLISNINVIVDELKGSETTFMCEYADETATIVEFLNRWITFCQSILESKYGPPCPPCPAPEAAGGPSVFLFPPKPKDTLMISRTPEVTCVVVDVSQEDPEVQFNWYVDGVEVHNAKTKPREEQFNSTYRVVSVLTVLHQDWLNGKEYKCKVSNKGLPSSIEKTISKAKGQPREPQVYTLPPCQEEMTKNQVSLWCLVKGFYPSDIAVEWESNGQPENNYKTTPPVLDSDGSFFLYSRLTVDKSRWQEGNVFSCSVMHEALHNHYTQKSLSLSLGK chain 2: QVQLVESGGGVVQPGGSLRLSCAASDSIDSLVNMGWYRQAPGKQRELVALIATYITHYADFVKGRFTISRDNSKNTLYLQMNSLRAEDTAVYYCYARNIIVDYWGQGTLVTVSSGGGGSGGGGSGGGGSQVQLVESGGGVVQPGGSLRLSCAASDSIDSLVNMGWYRQAPGKQRELVALIATYITHYADFVKGRFTISRDNSKNTLYLQMNSLRAEDTAVYYCYARNIIVDYWGQGTLVTVSSESKYGPPCPPCPAPEAAGGPSVFLFPPKPKDTLMISRTPEVTCVVVDVSQEDPEVQFNWYVDGVEVHNAKTKPREEQFNSTYRVVSVLTVLHQDWLNGKEYKCKVSNKGLPSSIEKTISKAKGQPREPQVCTLPPSQEEMTKNQVSLSCAVKGFYPSDIAVEWESNGQPENNYKTTPPVLDSDGSFFLVSRLTVDKSRWQEGNVFSCSVMHEALHNHYTQKSLSLSLG | 6.5 fold
